assay: soluble on expression in E. coli; label from the status in PepcDB or PDB records

Row | Sequence | soluble on expression in E. coli
1 | MEQFPNSLSITLLGSAGGAAKAVLAILNQAIANEKDPIYEVLKNAKFHLVDIKQKDRTYYDELFSNLKGQLYLYEINLQNVVEFKQHLKEKRTSVVIDVSGADTIRVLSCCNELGICYINSALENEAVDQDDSLIGFQLTERYTRFEKEKEKFTNTKAIIGSGMNPGVVQWMVVELMKERPNERPRACYIVEHDTSFLNDTALIKPHTLYASWAVERFLDEAIWSYPMYMSHHRPLYFYEDVYASEYKVKLGEKEFYGCLMPHEEVLILGKNFNMEVGFLYRINEYTTNIIRQNLDQVEDLWNWNRKVFNPAEEEVAGEDLVGVLLVYENSETYMYNVMNSSQVFRKYKTNATYFQVGCGIYAGLSSLLLDQFEQGAYYVEELLLNTESKYGEYLNLYMKDFVIGHNNFTDGLLHDRVRWM | not soluble
2 | MADLDDIKDGKDFHTDKPQTNTLFALKGCGALDWGMQSRLARIFNPKTRKTVMLAFDHGYFQGPTTGLERIDINIAPLFEYADVLMCTRGILRSVVPPAINKPVVLRASGANSILTELSNEAVAVAMDDAVRLNSCAAAAQVYIGSEHEHQSIKNIIQLIDAGLRVGMPIMAVTGVGKDMARDQRYFSLATRIAAEMGAQIIKTYYVDKGFERIAAGCPVPIVIAGGKKLPEREALEMCYQAIDQGASGVDMGRNIFQSEDPVAMIKAVHAVVHHNETAERAYELFLSEKS | not soluble
3 | MMGDSVIYYVEQADEPVNRADERARKTFKYFWRELFWERRRIISALDFAMVKVPFFQDGEDGEICEHMWIDDIYFDGLYIYGVLNNEPGELTNVEQGESVCVPVDDISDWMFVCNGIPYGGFTIQAMRGQMTEEERTEHDAAWGIDFGDPGQILLVYEEKEHPENLEE | not soluble
4 | MTMKEVEITAESLAKLTPAKQPNDTTTRVNSLSYGLKGDHMIMSTDDDSMFLYDMNTGLRSRSVNSKKYGCSHVKFASDSMCALHGSTKVDNTIRYLSLTDNKYIRYFQGHDKLVTGINVSPMDDMFLSVAEDKTIRLWDLKTHNCIGLMNLSATPIATFDPEGLLFAAGLDNNIIKLYDLRSFDKGPFSSFGPLENEDNVEWTAMRFSPCGKYIMICTNSSQLLLVDAFTGLIKFTLEEHQNAQKIPLMASFTPESSHIMVGSSDGYIYFYDVETGEIALKTLAPNNQTCHIAEFSPQHFVAATADTKLTLWCASDELKAQAQQS | not soluble
5 | MRPLLLLALLGWLLLAEAKGDAKPEDNLLVLTVATKETEGFRRFKRSAQFFNYKIQALGLGEDWNVEKGTSAGGGQKVRLLKKALEKHADKEDLVILFTDSYDVLFASGPRELLKKFRQSRSQVVFSAEELIYPDRRLETKYPVVSDGKRFLGSGGFIGYAPNLSKLVAEWEGQDSDSDQLFYTKIFLDPEKREQINITLDHRCRIFQNLDGALDEVVLKFEMGHVRARNLAYDTLPVLIHGNGPTKLQLNYLGNYIPRFWTFETGCTVCDEGLRSLKGIGDEALPTVLVGVFIEQPTPFVSLFFQRLLRLHYPQKHMRLFIHNHEQHHKAQVEEFLAQHGSEYQSVKLVGPEVRMANADARNMGADLCRQDRSCTYYFSVDADVALTEPNSLRLLIQQNKNVIAPLMTRHGRLWSNFWGALSADGYYARSEDYVDIVQGRRVGVWNVPYISNIYLIKGSALRGELQSSDLFHHSKLDPDMAFCANIRQQDVFMFLTNRHTLGHLLSLDSYRTTHLHNDLWEVFSNPEDWKEKYIHQNYTKALAGKLVETPCPDVYWFPIFTEVACDELVEEMEHFGQWSLGNNKDNRIQGGYENVPTIDIHMNQIGFEREWHKFLLEYIAPMTEKLYPGYYTRAQFDLAFVVRYKPDEQPSLMPHHDASTFTINIALNRVGVDYEGGGCRFLRYNCSIRAPRKGWTLMHPGRLTHYHEGLPTTRGTRYIAVSFVDP | not soluble
6 | SATSTTIAKHIGNSNPLIDHHLGADPVALTYNGRVYIYMSSDDYEYNSNGTIKDNSFANLNRVFVISSADMVNWTDHGAIPVAGANGANGGRGIAKWAGASWAPSIAVKKINGKDKFFLYFANSGGGIGVLTADSPIGPWTDPIGKPLVTPSTPGMSGVVWLFDPAVFVDDDGTGYLYAGGGVPGVSNPTQGQWANPKTARVIKLGPDMTSVVGSASTIDAPFMFEDSGLHKYNGTYYYSYCINFGGTHPADKPPGEIGYMTSSSPMGPFTYRGHFLKNPGAFFGGGGNNHHAVFNFKNEWYVVYHAQTVSSALFGAGKGYRSPHINKLVHNADGSIQEVAANYAGVTQISNLNPYNRVEAETFAWNGRILTEKSTAPGGPVNNQHVTSIQNGDWIAVGNADFGAGGARSFKANVASTLGGKIEVRLDSADGKLVGTLNVPSTGGAQTWREIETAVSGATGVHKVFFVFTGTGTGNLFNFDYWQFTQR | soluble
7 | MKFNIRGENIEVTPALKEYVEKKLSKLERYFDTFPEIKVNLKVYSDKQRVEVTIPFTDLLLRAEETNSDMYAAIDLVVDKIERQIRKHKTKVNRKLREKGSIKTNFILPEAVAVLDEVEEDELELVRTKRFDLKPMDVEEAILQMDMLGHNFFVFTNADTNETNVVYGRKDGKYGLIETKLEHHHHHH | soluble
8 | MSLKVHLNYETGPEHWADLQSRLAPGIRLSSGECRPANGFDILVSGEPTLEELEGNGRLRAVIVPWVGVPLATLDRMKEFPSIALHNLPYNIGPTAEMAVALLLAAAKRIVPYDQRLRRGYWSGEHTGVPGSVMLDGGLAVILGYGRIGRRVAAACRGLGMRIAGVRRNPGTSDEEYALADLSGLLPQAAALIVCLPHTHQTDRLIGSRELERLPSNAVLVNVARGGIVNEEALYRTLQARRIYAAGIDVWYRYPSATERKQGLPHPPSSFPFHTLDNVVMSPHRAGWSEEKEPARIAELANMLNAAARGEGHHHHHH | not soluble
9 | MQQLINSLFMEAFANPWLAEQEDQARLDLAQLVAEGDRLAFSTDSYVIDPLFFPGGNIGKLAICGTANDVAVSGAIPRYLSCGFILEEGLPMETLKAVVTSMAETARAAGIAIVTGDTKVVQRGAVDKLFINTAGMGAIPANIHWGAQTLTAGDVLLVSGTLGDHGATILNLREQLGLDGELVSDCAVLTPLIQTLRDIPGVKALRDATRGGVNAVVHEFAAACGCGIELSEAALPVKPAVRGVCELLGLDALNFANEGKLVIAVERNAAEQVLAALHSHPLGKDAALIGEVVERKGVRLAGLYGVKRTLDLPHAEPLPRIC | not soluble
10 | MSNTMQGAHYPQMAFDPTWQMHPAYATATAFNPYNVSFDFTRSPNTSGGSDESMSDGSKIDPKRSPKYLEKRMKNNEAAKKSRASRKHREQKNQTENELLKRKNAALEEELKQAKCELAQMQITIRDMSIEREAYRRENEMLKMVNNKFADSKFEPPQPLRDMTNCNLPYKYELLS | not soluble
11 | NTYAPIETLKRLYSEAFRLPDVVGISIGTRIDSVNHEILDFLGEYAREKEVWIEYGIQSIHDRTLEGINRGHDSSEMEYWIKETQNRGIKVCVHLIYGLPGESEEMMLETLDKMIEWQAESIKIHPLYVMAHTALATLYKKGEYTPITLERYAWLIGESMKRIPK | not soluble
12 | FGKVGYATNLTYTANRNKIMKMVHDYKNPSDGSLFSITELTLQDKGGVYLREKDAIGDVYVKGILARGKDGKLIEEEGGYKVDRSQRIKIGSVNPDFSIGWRHNVTWNNITLDLLFNGRFGGIVTSSTQAFLDDYGVSKDTYKARQNGGVWVNGTQYDAEKYYTTIGGEQLMAYYAYKATNIRLQEASLSYTLPGKWFGNVINRLTVSAIGRNLWMIYNKAPFDPEMTSSTGTYNRGDVFMPPSLRSVGFSVKIEL | not soluble

— the DeepSol protein solubility set
